# B1: VEGF-DΔNΔC [human] / Recombinant human VEGFR-2-Fc chimera [human] (parent complex)
# chain 1: FYDIETLKVIDEEWQRTQCSPRETCVEVASELGKSTNTFFKPPCVNVFRCGGCCNEESLICMNTSTSYISKQLFEISVPLTSVPELVPVKVANHTGCKCLPTAPRHPYS
# chain 2: ASVGLPSVSLDLPRLSIQKDILTIKANTTLQITCRGQRDLDWLWPNNQSGSEQRVEVTECSDGLFCKTLTIPKVIGNDTGAYKCFYRETDLASVIYVYVQDYRSPFIASVSDQHGVVYITENKNKTVVIPCLGSISNLNVSLCARYPEKRFVPDGNRISWDSKKGFTIPSYMISYAGMVFCEAKINDESYQSIMYIVVVVGYRIYDVVLSPSHGIELSVGEKLVLNCTARTELNVGIDFNWEYPSSKHQHKKLVNRDLKTQSGSEMKKFLSTLTIDGVTRSDQGLYTCAASSGLMTKKNSTFVRVHEKPFVAFGSGMESLVEATVGERVRIPAKYLGYPPPEIKWYKNGIPLESNHTIKAGHVLTIMEVSERDTGNYTVILTNPISKEKQSHVVSLVVYVPPQIGEKSLISPVDSYQYGTTQTLTCTVYAIPPPHHIHWYWQLEEECANEPSQAVSVTNPYPCEEWRSVEDFQGGNKIEVNKNQFALIEGKNKTVSTLVIQAANVSALYKCEAVNKVGRGERVISFHVTRGPEITLQPDMQPTEQESVSLWCTADRSTFENLTWYKLGPQPLPIHVGELPTPVCKNLDTLWKLNATMFSNSTNDILIMELKNASLQDQGDYVCLAQDRKTKKRHCVVRQLTVLERVAPTITGNLENQTTSIGESIEVSCTASGNPPPQIMWFKDNETLVEDSGIVLKDGNRNLTIRRVRKEDEGLYTCQACSVLGCAKVEAFFIIEGAQEKTNLE
# B2: VEGF-DΔNΔC [human] / Recombinant human VEGFR-3-Fc chimera [human] (parent complex)
# chain 1: B1 chain 1
# chain 2: YSMTPPTLNITEESHVIDTGDSLSISCRGQHPLEWAWPGAQEAPATGDKDSEDTGVVRDCEGTDARPYCKVLLLHEVHANDTGSYVCYYKYIKARIEGTTAASSYVFVRDFEQPFINKPDTLLVNRKDAMWVPCLVSIPGLNVTLRSQSSVLWPDGQEVVWDDRRGMLVSTPLLHDALYLQCETTWGDQDFLSNPFLVHITGNELYDIQLLPRKSLELLVGEKLVLNCTVWAEFNSGVTFDWDYPGKQAERGKWVPERRSQQTHTELSSILTIHNVSQHDLGSYVCKANNGIQRFRESTEVIVHENPFISVEWLKGPILEATAGDELVKLPVKLAAYPPPEFQWYKDGKALSGRHSPHALVLKEVTEASTGTYTLALWNSAAGLRRNISLELVVNVPPQIHEKEASSPSIYSRHSRQALTCTAYGVPLPLSIQWHWRPWTPCKMFAQRSLRRRQQQDLMPQCRDWRAVTTQDAVNPIESLDTWTEFVEGKNKTVSKLVIQNANVSAMYKCVVSNKVGQDERLIYFYVTTIPDGFTIESKPSEELLEGQPVLLSCQADSYKYEHLRWYRLNLSTLHDAHGNPLLLDCKNVHLFATPLAASLEEVAPGARHATLSLSIPRVAPEHEGHYVCEVQDRRSHDKHCHKKYLSVQALEAPRLTQNLTDLLVNVSDSLEMQCLVAGAHAPSIVWYKDERLLEEKSGVDLADSNQKLSIQRVREEDAGRYLCSVCNAKGCVNSSASVAVEGSEDKGSME
# Variants of: B1
# Experiment: ELISA; The same amount of each VEGF-DΔNΔC variant was used; assays conducted three times; parent: 100; read off a plot
row,percent of parent,Variant
1,~110%,chain 1 FYDIETLKAIDEEWQRTQCSPRETCVEVASELGKSTNTFFKPPCVNVFRCGGCCNEESLICMNTSTSYISKQLFEISVPLTSVPELVPVKVANHTGCKCLPTAPRHPYS
2,~88%,chain 1 FYDIETLAVIDEEWQRTQCSPRETCVEVASELGKSTNTFFKPPCVNVFRCGGCCNEESLICMNTSTSYISKQLFEISVPLTSVPELVPVKVANHTGCKCLPTAPRHPYS
3,~95%,chain 1 FYAIETLKVIDEEWQRTQCSPRETCVEVASELGKSTNTFFKPPCVNVFRCGGCCNEESLICMNTSTSYISKQLFEISVPLTSVPELVPVKVANHTGCKCLPTAPRHPYS
4,~99%,chain 1 FYDIATLKVIDEEWQRTQCSPRETCVEVASELGKSTNTFFKPPCVNVFRCGGCCNEESLICMNTSTSYISKQLFEISVPLTSVPELVPVKVANHTGCKCLPTAPRHPYS
5,~100%,chain 1 FYDIETLKVIAEEWQRTQCSPRETCVEVASELGKSTNTFFKPPCVNVFRCGGCCNEESLICMNTSTSYISKQLFEISVPLTSVPELVPVKVANHTGCKCLPTAPRHPYS
6,~100%,chain 1 FYDAETLKVIDEEWQRTQCSPRETCVEVASELGKSTNTFFKPPCVNVFRCGGCCNEESLICMNTSTSYISKQLFEISVPLTSVPELVPVKVANHTGCKCLPTAPRHPYS
7,~20%,chain 1 FYDIETLKVADEEWQRTQCSPRETCVEVASELGKSTNTFFKPPCVNVFRCGGCCNEESLICMNTSTSYISKQLFEISVPLTSVPELVPVKVANHTGCKCLPTAPRHPYS

# Continued, variant first:
row,Variant,percent of parent
1,chain 1 FYDIETAKVIDEEWQRTQCSPRETCVEVASELGKSTNTFFKPPCVNVFRCGGCCNEESLICMNTSTSYISKQLFEISVPLTSVPELVPVKVANHTGCKCLPTAPRHPYS,~19%
2,chain 1 FYDIETLKVIDAEWQRTQCSPRETCVEVASELGKSTNTFFKPPCVNVFRCGGCCNEESLICMNTSTSYISKQLFEISVPLTSVPELVPVKVANHTGCKCLPTAPRHPYS,~100%
3,chain 1 FYDIETLKVIDEEWARTQCSPRETCVEVASELGKSTNTFFKPPCVNVFRCGGCCNEESLICMNTSTSYISKQLFEISVPLTSVPELVPVKVANHTGCKCLPTAPRHPYS,~110%
4,chain 1 FYDIEALKVIDEEWQRTQCSPRETCVEVASELGKSTNTFFKPPCVNVFRCGGCCNEESLICMNTSTSYISKQLFEISVPLTSVPELVPVKVANHTGCKCLPTAPRHPYS,~100%
5,chain 1 FYDIETLKVIDEEWQATQCSPRETCVEVASELGKSTNTFFKPPCVNVFRCGGCCNEESLICMNTSTSYISKQLFEISVPLTSVPELVPVKVANHTGCKCLPTAPRHPYS,~110%
6,chain 1 FYDIETLKVIDEEAQRTQCSPRETCVEVASELGKSTNTFFKPPCVNVFRCGGCCNEESLICMNTSTSYISKQLFEISVPLTSVPELVPVKVANHTGCKCLPTAPRHPYS,~62%
7,chain 1 FADIETLKVIDEEWQRTQCSPRETCVEVASELGKSTNTFFKPPCVNVFRCGGCCNEESLICMNTSTSYISKQLFEISVPLTSVPELVPVKVANHTGCKCLPTAPRHPYS,~86%
8,chain 1 FYDIETLKVIDEAWQRTQCSPRETCVEVASELGKSTNTFFKPPCVNVFRCGGCCNEESLICMNTSTSYISKQLFEISVPLTSVPELVPVKVANHTGCKCLPTAPRHPYS,~14%
9,chain 1 AYDIETLKVIDEEWQRTQCSPRETCVEVASELGKSTNTFFKPPCVNVFRCGGCCNEESLICMNTSTSYISKQLFEISVPLTSVPELVPVKVANHTGCKCLPTAPRHPYS,~89%

# Variants of: B2
# Experiment: as above
row,percent of parent,Variant
1,~99%,chain 1 FYDIATLKVIDEEWQRTQCSPRETCVEVASELGKSTNTFFKPPCVNVFRCGGCCNEESLICMNTSTSYISKQLFEISVPLTSVPELVPVKVANHTGCKCLPTAPRHPYS
2,~72%,chain 1 FYDIETLKVIDEEAQRTQCSPRETCVEVASELGKSTNTFFKPPCVNVFRCGGCCNEESLICMNTSTSYISKQLFEISVPLTSVPELVPVKVANHTGCKCLPTAPRHPYS
3,~9%,chain 1 FYDIETLKVADEEWQRTQCSPRETCVEVASELGKSTNTFFKPPCVNVFRCGGCCNEESLICMNTSTSYISKQLFEISVPLTSVPELVPVKVANHTGCKCLPTAPRHPYS

# Continued, variant first:
row,Variant,percent of parent
1,chain 1 FYDIETLAVIDEEWQRTQCSPRETCVEVASELGKSTNTFFKPPCVNVFRCGGCCNEESLICMNTSTSYISKQLFEISVPLTSVPELVPVKVANHTGCKCLPTAPRHPYS,~87%
2,chain 1 FYDIETAKVIDEEWQRTQCSPRETCVEVASELGKSTNTFFKPPCVNVFRCGGCCNEESLICMNTSTSYISKQLFEISVPLTSVPELVPVKVANHTGCKCLPTAPRHPYS,~3%

# — PMC5207153, “Differential Receptor Binding and Regulatory Mechanisms for the Lymphangiogenic Growth Factors Vascular Endothelial Growth Factor (VEGF)-C and -D*^([image sbox.jpg])” (The Journal of Biological Chemistry, 2016)
